For this assay, the target named is T1, Aα392-610 sub-fragment (Homo sapiens, UniProt P02671).
T1 construct: (residues Aα221-391 and Aα392-610, respectively); made in house; host or cells: E. coli, pET20b expression vector
T1 sequence (P02671 411-629): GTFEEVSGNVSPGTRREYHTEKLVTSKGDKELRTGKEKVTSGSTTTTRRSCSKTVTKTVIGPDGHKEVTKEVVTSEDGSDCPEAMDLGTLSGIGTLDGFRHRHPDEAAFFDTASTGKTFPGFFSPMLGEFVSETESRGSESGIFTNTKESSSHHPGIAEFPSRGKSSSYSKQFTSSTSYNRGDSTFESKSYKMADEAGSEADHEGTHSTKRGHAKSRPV
The experiment in a line: ELISA and kinetic analysis of incorporation into immobilized Aα392-610 sub-fragment. Type of assay: biochemical. The procedure: The interaction between thymosin β4 and fibrin(ogen) and its fragments in the presence or absence of FXIIIa was studies by ELISA using plastic microliter plates. Wells of microliter plates were coated overnight at […] with fibrinogen and fibrin at 10 μg/mL or with the recombinant fragments of 20 μg/ml, all in 0.1 M NaHCO3 buffer, pH 8.3. Fibrin was made by addition to the wells of a mixture containing 10 μg/mL fibrinogen 1 NIH u/ml thrombin and 400 u/ml aprotinin, followed by overnight incubation at +4° C. The wells were then blocked by incubation with Super Blocker (Pierce) at 37° C. for 1 h. Following washing with TBS containing 0.05% Tween-20 (TBS-Tween), the indicated concentrations of thymosin β4, FXIII, FXIIIa(Thr) and FXIIIa(Ca) were added to the wells and incubated for 2-2.5 h at 37° C. Bound (incorporated) thymosin β4 was detected by the reaction with rabbit anti-thymosin β4 serum and peroxidase-conjugated anti-rabbit IgG. A TMB Microwell Peroxidase Substrase was added to the wells, and the incorporated thymosin β4 was measured spectrophotometrically at 450 nm.
To analyze kinetics of the incorporation of thymosin β4 into different fibrin(ogen) fragments, they were immobilized onto the wells of microliter plates (as described above, except that the concentration of all fragments was 20 μg/mL) and incubated with several concentrations of thymosin β4 in the presence of 10 μg/L thrombin-activated factor XIIIa. The incubation mixtures were inhibited every 15 min during 1 hour of incubation by the addition of iodacetamide to final concentration 10 mM. Incorporated thymosin β4 at each time point was detected with rabbit anti-thymosin β4 serum as described above. The initial rates of the reaction of incorporation (V) at different concentrations of thymosin β4 were determined from the slopes of the reaction time course plots and expressed as tangent α=A450/t (min), where A450 represents absorbance at 450 nm in optical units (o.u) which is proportional to the amount of incorporated thymosin β4. […]
(An ELISA detects its analyte on a solid surface through an enzyme-linked reagent.)

For thymosin β4, the “non-covalent interaction with Aα392-610 sub-fragment (ELISA)” value (non-activated factor XIII or without it) was “no significant non-covalent interaction”. Moreover, the “incorporation into immobilized Aα392-610 sub-fragment (ELISA)” value (presence of factor XIIIa) is reported as “incorporated effectively”. For the same substance, the Km (thrombin-activated factor XIIIa, Lineweaver-Burk plot, read-out: apparent Michaelis constant (Km) for incorporation into the Aα392-610 sub-fragment) is 8.6 ± 3.7 µM.

For the origin of these results see patent US20100204147A1, “Methods For Delivering Thymosin Beta 4, Analogues, Isoforms and Other Derivatives” (REGENERX BIOPHARMACEUTICALS, INC., priority 2003, published 2010).
